Experimental data as given in PMC5509671.
Each block holds one substance with its values, some of them ahead of it.

Legend:
[1] = target: full length human Bcl-xL S4C, C151A, labelled (human) (UniProt Q07817); assay: fluorescence cross-correlation spectroscopy (FCCS) in solution; both partners free in solution, one with a green and one with a red dye; 150 mM NaCl, 20 mM Tris, pH 7.5; incubated at least 30 min (1 h for the cBidG titration); protein concentrations up to 200 nM; CC above 2.8% indicates interaction
Chain of UniProt Q07817 (Q07817 whole entry S4C/C151A): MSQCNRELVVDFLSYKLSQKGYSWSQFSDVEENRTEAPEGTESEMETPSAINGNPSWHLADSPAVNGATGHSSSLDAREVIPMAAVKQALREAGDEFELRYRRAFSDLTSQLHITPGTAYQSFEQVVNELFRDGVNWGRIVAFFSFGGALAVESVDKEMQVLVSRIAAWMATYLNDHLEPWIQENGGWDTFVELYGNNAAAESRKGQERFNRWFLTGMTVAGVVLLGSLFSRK

[2] = target: full length human Bax S4C, C62S, C126S, labelled (human) (UniProt Q07812); assay: scanning FCCS in giant unilamellar vesicles; membrane-embedded proteins in GUVs (30% CL or MOM mix), 22 °C; membrane insertion with cBid (labelled cBid as partner, or unlabeled cBid as activator; for Bax with Bcl-xL: cBid, Bax and GUVs incubated 30 min before Bcl-xL was added); mean CC above 20% indicates interaction
Chain of UniProt Q07812 (Q07812 whole entry S4C/C62S/C126S): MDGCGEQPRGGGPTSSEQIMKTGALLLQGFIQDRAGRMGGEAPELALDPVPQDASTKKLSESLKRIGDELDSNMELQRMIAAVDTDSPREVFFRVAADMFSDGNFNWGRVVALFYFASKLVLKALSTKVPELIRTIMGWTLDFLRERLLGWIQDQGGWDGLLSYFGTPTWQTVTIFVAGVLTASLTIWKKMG

[3] = target: full length human Bcl-xL S4C, C151A, labelled (human) (UniProt Q07817); assay: as above
[4] = target: full length human Bcl-xL S4C, C151A, labelled (human) (UniProt Q07817); assay: FCCS kinetics in solution fitted with an ODE model; Bcl-xLR and Bcl-xLG mixed and incubated 2 h at RT, then 400 nM unlabeled cBid (~10-fold excess) or buffer added at t = 0; CC followed over time; rate constants from the ODE model of scenario 2 with likelihood profiles (95% confidence)

- %CC [1]: < 40 % CC
- %CC [2]: < 40 % CC
- %CC [3]: > 60 % CC
Substance: cBid (caspase 8-cleaved full length mouse Bid) labelled at the C-terminal fragment (complex)

- k+3 (cBid with a Bcl-xL homo-dimer, giving a cBid/Bcl-xL hetero-dimer and a Bcl-xL monomer) [4]: 10 to 700 M⁻¹ s⁻¹
Substance: cBid (caspase 8-cleaved full length mouse Bid), unlabeled (complex)

- %CC (highest, in single GUVs) [2]: < 100 % CC
Substance: full length human Bax S4C, C62S, C126S, labelled (from UniProt Q07812 1-192) (natural protein)
